Experimental data reported in patent US20160002343A1 (AbbVie / Abbott, published 2016).
Values belong to the binder of their own block, whether it stands above or below them.

Assays:
[1] = biological target: T1, mouse Transferrin Receptor overexpressed on Hek 293 cells (mouse, UniProt Q62351 1-763); test: 293/mTfR cell-based assay
T1 construct: whole, on cells; also called mTfR; Hek293/mTfR
Description: (§1) Meso-scale Discovery (MSD) Electrochemiluminescence (ECL) assays to screen for antibodies or DVD-Ig proteins that bind a desired target antigen expressed on the cell surface were performed as follows: Hek 293 cells overexpressing mouse Transferrin Receptor were added onto MSD 96-well plates (MSD Cat# L11 XB-3, lot#2290-EA). The plates which were blocked using blocking buffer (30% FBS Serum (Hyclone) in PBS) at 37° C. for 1 hour. After incubating at room temperature (RT) for 30 minutes with mild agitation, plates were washed with DPBS 3 times and Abs/DVD-Ig proteins (10,000 ng/ml) were added. After incubating for 1 hour at RT, plates were washed 3 times with DPBS and 25 μl of Goat anti-human Sulfo TAG (MSD Cat# R32AC-, Lot# W001162) at 1 μg/ml was added. Following incubation at RT for 1 hour, plates were washed and MSD read buffer was added before reading on a MSD SECTOR Imager 6000. EC50 values were obtained using Xlfit4 software package.

TNF = biological target: T2, TNF (mouse, UniProt P06804 80-235); test: cell-based or functional assay
T2 sequence (looked up): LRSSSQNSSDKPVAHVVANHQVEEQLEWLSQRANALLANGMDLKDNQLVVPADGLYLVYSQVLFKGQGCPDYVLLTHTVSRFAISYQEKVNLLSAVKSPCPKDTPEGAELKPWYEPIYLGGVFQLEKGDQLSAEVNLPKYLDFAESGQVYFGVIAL

rmTfR (119-763) (mouse) = rmTfR (119-763) (mouse) (UniProt Q62351); test: Biacore SPR, antibody captured by anti-human IgG Fc, rmTfR (119-763) in solution
[2] = biological target: mouse Transferrin Receptor overexpressed on Hek 293 cells (mouse) (UniProt Q62351); test: mTfR binding cell-based assay
[3] = biological target: mouse Transferrin Receptor overexpressed on Hek 293 cells (mouse) (UniProt Q62351); test: TfR binding EC50, cell-based assay (repeats Table 7)
[4] = biological target: mouse Transferrin Receptor overexpressed on Hek 293 cells (mouse) (UniProt Q62351); test: cell-based MSD-ECL binding, Hek293/mTfR cells
[5] = biological target: mouse Transferrin Receptor overexpressed on Hek 293 cells (mouse) (UniProt Q62351); test: binding signal on TfR against 'Ab, ng/ml'; format not stated for this figure, Examples 4 and 9 describe the cell-based Hek293/mTfR MSD-ECL binding assay
[6] = biological target: T1, mouse Transferrin Receptor …; test: EC50 column of Table 13, taken as the cell-based mTfR binding assay
Description: as §1

[7] = biological target: T1, mouse Transferrin Receptor …; test: cell-based MSD-ECL binding, Hek293/mTfR cells
Description: as §1

rmTfR (123-763) [8] = biological target: T3, rmTfR (123-763) (mouse, UniProt Q62351 123-763); test: Biacore SPR, antibody captured by anti-human IgG Fc, rmTfR (123-763) in solution
T3 construct: range 123-763; also called recombinant mouse transferrin receptor 123-763
Description: (§2) The BIACORE assay (Biacore, Inc, Piscataway, N.J.) was used to determine the affinity of antibodies or DVD-Ig proteins with kinetic measurements of on-rate and off-rate constants. Binding of antibodies or DVD-Ig protein to a target antigen (for example, a purified recombinant target antigen) was determined by surface plasmon resonance-based measurements with a Biacore® 1000 or 3000 instrument (Biacore® AB, Uppsala, Sweden) using running HBS-EP (10 mM HEPES [pH 7.4], 150 mM NaCl, 3 mM EDTA, and 0.005% surfactant P20) at 25° C. All chemicals were obtained from Biacore® AB (Uppsala, Sweden) or otherwise from a different source as described in the text. For example, approximately 5000 RU of goat anti-human IgG, (Fcγ), fragment specific polyclonal antibody (Pierce Biotechnology Inc, Rockford, Ill.) diluted in 10 mM sodium acetate (pH 4.5) was directly immobilized across a CM5 research grade biosensor chip using a standard amine coupling kit according to manufacturer's instructions and procedures at 25 μg/ml. Unreacted moieties on the biosensor surface were blocked with ethanolamine. Modified carboxymethyl dextran surface in flowcell 2 and 4 was used as a reaction surface. Unmodified carboxymethyl dextran without goat anti-human IgG in flow cell 1 and 3 was used as the reference surface. For kinetic analysis, rate equations derived from the 1:1 Langmuir binding model were fitted simultaneously to association and dissociation phases of all eight injections (using global fit analysis) with the use of BIAevaluation 4.0.1 software. Purified antibodies or DVD-Ig proteins were diluted in HEPES-buffered saline for capture across goat anti-human IgG specific reaction surfaces. Antibodies or DVD-Ig proteins to be captured as ligands (25 μg/ml) were injected over reaction matrices at a flow rate of 5 μl/minute. The association and dissociation rate constants, kon (M⁻¹ s⁻¹) and koff (s⁻¹) were determined under a continuous flow rate of 25 μl/minute. Rate constants were derived by making kinetic binding measurements at different antigen concentrations ranging from 10-200 nM. The equilibrium dissociation constant (M) of the reaction between antibodies or DVD-Ig proteins and the target antigen was then calculated from the kinetic rate constants by the following formula: KD=koff/kon. Binding was recorded as a function of time and kinetic rate constants were calculated.

[9] = biological target: T1, mouse Transferrin Receptor …; test: mTfR binding cell-based assay
Description: as §1

rmTfR (123-763) [10] = biological target: T3, rmTfR (123-763); test: Biacore SPR, DVD-Ig captured by anti-human IgG Fc, rmTfR (123-763) in solution
Description: as §2, with “Purified antibodies or DVD-Ig proteins were diluted in HEPES-buffered saline for capture across goat anti-human IgG specific reaction surfaces. Antibodies or DVD-Ig proteins to be captured as ligands (25 μg/ml) were injected over reaction matrices at a flow rate of 5 μl/minute.” left out, “Rate constants were derived by making kinetic binding measurements at different antigen concentrations ranging from 10-200 nM.” left out

T3 sequence (Q62351 123-763): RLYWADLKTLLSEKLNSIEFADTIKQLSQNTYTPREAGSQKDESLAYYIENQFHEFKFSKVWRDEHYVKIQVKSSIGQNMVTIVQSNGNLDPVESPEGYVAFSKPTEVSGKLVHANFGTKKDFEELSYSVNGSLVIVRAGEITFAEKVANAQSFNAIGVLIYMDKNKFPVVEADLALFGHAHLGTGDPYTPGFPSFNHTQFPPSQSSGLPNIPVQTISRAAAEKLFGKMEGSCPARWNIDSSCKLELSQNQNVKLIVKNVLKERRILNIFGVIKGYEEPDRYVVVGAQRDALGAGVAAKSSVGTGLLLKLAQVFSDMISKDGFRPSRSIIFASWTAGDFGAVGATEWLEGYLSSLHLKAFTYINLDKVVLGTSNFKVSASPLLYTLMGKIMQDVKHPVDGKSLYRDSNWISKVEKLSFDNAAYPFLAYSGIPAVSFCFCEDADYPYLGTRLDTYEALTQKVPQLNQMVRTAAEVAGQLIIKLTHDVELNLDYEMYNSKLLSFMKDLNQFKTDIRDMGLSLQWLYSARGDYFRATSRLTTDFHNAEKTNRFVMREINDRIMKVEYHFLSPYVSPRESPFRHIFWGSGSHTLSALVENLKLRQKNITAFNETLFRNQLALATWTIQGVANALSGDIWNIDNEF
Sequence of rmTfR (119-763) (mouse) (Q62351 119-763): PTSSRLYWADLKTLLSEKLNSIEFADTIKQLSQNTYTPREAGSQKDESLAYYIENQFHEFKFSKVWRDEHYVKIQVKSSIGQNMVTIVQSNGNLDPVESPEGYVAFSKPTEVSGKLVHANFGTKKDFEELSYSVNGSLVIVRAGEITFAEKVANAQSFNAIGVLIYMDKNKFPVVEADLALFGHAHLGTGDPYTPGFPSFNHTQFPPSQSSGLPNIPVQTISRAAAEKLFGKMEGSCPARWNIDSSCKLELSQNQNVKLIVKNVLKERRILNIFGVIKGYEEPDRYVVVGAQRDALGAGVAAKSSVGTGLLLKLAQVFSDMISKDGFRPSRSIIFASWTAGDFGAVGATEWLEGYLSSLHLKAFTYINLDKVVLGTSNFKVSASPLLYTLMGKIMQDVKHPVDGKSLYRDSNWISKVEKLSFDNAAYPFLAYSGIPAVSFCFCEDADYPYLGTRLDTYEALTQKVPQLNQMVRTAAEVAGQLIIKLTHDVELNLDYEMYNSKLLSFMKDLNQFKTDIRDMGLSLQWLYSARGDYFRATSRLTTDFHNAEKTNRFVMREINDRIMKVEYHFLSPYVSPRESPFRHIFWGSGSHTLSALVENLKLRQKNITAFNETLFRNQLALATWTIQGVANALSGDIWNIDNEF
Sequence of mouse Transferrin Receptor overexpressed on Hek 293 cells (mouse) (Q62351 whole entry): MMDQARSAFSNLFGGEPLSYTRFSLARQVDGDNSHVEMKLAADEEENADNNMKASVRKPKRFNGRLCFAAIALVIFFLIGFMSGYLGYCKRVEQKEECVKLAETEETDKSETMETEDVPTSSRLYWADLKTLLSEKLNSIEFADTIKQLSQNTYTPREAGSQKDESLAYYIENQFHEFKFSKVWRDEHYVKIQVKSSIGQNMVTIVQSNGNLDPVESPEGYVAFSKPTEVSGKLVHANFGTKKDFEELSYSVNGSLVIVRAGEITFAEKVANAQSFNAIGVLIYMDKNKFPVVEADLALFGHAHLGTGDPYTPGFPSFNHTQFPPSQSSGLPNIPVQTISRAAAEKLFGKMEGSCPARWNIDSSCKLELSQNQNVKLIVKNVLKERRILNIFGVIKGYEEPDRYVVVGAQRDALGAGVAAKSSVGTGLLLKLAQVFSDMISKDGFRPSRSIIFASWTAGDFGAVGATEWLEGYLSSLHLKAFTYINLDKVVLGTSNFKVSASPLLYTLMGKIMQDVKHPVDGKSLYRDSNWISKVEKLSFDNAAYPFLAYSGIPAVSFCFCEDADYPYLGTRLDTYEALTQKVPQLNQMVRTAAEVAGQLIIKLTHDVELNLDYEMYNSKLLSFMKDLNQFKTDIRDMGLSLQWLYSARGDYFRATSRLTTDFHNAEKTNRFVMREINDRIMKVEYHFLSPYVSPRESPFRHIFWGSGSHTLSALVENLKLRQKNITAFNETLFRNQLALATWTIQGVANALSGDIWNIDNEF
T1 sequence (Q62351 whole entry): as above

- EC50 [1]: 3.76 nM
- L929 TNF Neutralization assay IC50 (TNF): 4.94 nM
B1: muTfR(AB405)-SL-muTNF(8C11) (bispecific antibody)
VH: QVQLVQSGAEVKKPGASVKVSCKASGFTFSNYGMHWIRQAPGQGLEWIAMIYYDSSKMNYADTVKGRFTITRDNSTNTLYMELSSLRSEDTAVYYCAVPTSHYVVDVWGQGTTVTVSSASTKGPEFQLQQSGPELVKPGASVRISCKASGYSFTDYNMNWVKQSNGKSLEWVGVINPNYGSSTYNQKFKGKATLTVDQSSSTAYMQLNSLTSEDSAVYYCARKWGQLGRGFFDVWGTGTTVTVSS
VL: EIVMTQSPATLSVSPGERATLSCQASQDIGNWLAWYQQKPGQSPRLLIYGATSLADGVPARFSGSRSGTEFTLTISSLQSEDFAVYYCLQAYNTPWTFGGGTKVEIKRTVAAPSVFIFPPQIVLSQSPAILSASPGEKVTMTCRASSSVSYMHWFQQKPGSSPKPWIYATSNLASGVPARFSGSGSGTSYSLTISRVEAEDAATYYCQQWSSSPLTFGAGTKLELK
notes: DVD-Ig; outer AB405 (TfR), inner 8C11 (TNF); also called TfR(AB405)-SL-TNF DVD-Ig protein; copies: 2 + 2

- Kd (rmTfR (119-763) (mouse)): 5 nM
- koff (rmTfR (119-763) (mouse)): 0.000181 s⁻¹
- kon (rmTfR (119-763) (mouse)): 39400 M⁻¹ s⁻¹
- EC50 [2]: 0.12 nM
- EC50 [3]: 0.1 nM
- EC50 [4]: 0.1 nM
- EC50 (read off the curve) [5]: 0.03 µg/mL
B2: AB221 (antibody, from another filing, V domains shown)
VH: EVQLVESGGGLVQPGNSLTLSCVASGFTFSNYGMHWIRQAPKKGLEWIAMIYYDSSKMNYADTVKGRFTISRDNSKNTLYLEMNSLRSEDTAMYYCAVPTSHYVVDVWGQGVSVTVSS
VL: DIQMTQSPASLSASLEEIVTITCQASQDIGNWLAWYQQKPGKSPQLLIYGATSLADGVPSRFSGSRSGTQFSLKISRVQVEDIGIYYCLQAYNTPWTFGGGTKLELKR

- EC50 [6]: 1.2 nM
- EC50 [7]: 1.2 nM
B3: DVD2671 (bispecific antibody)
VH: EVQLLESGGGLVQPGGSLRLSCAASGFTFSNYGMSWVRQAPGKGLEWVASIRSGGGRTYYSDNVKGRFTISRDNSKNTLYLQMNSLRAEDTAVYYCVRYDHYSGSSDYWGQGTLVTVSSASTKGPSVFPLAPEVQLVESGGGLVQPGNSLTLSCVASGFTFSNYGMHWIRQAPKKGLEWIAMIYYDSSKMNYADTVKGRFTISRDNSKNTLYLEMNSLRSEDTAMYYCAVPTSHYVVDVWGQGVSVTVSS
VL: DVVMTQSPLSLPVTPGEPASISCKSSQSLLDSDGKTYLNWLLQKPGQSPQRLIYLVSKLDSGVPDRFSGSGSGTDFTLKISRVEAEDVGVYYCWQGTHFPRTFGQGTKVEIKRTVAAPDIQMTQSPASLSASLEEIVTITCQASQDIGNWLAWYQQKPGKSPQLLIYGATSLADGVPSRFSGSRSGTQFSLKISRVQVEDIGIYYCLQAYNTPWTFGGGTKLELK
notes: DVD-Ig; also called AbetaLSTfR

- L929 TNF Neutralization assay IC50 (TNF): 5 nM
B4: anti-TNF antibody 8C11 (antibody, V domains shown)
VH: EFQLQQSGPELVKPGASVRISCKASGYSFTDYNMNWVKQSNGKSLEWVGVINPNYGSSTYNQKFKGKATLTVDQSSSTAYMQLNSLTSEDSAVYYCARKWGQLGRGFFDVWGTGTTVTVSS
VL: QIVLSQSPAILSASPGEKVTMTCRASSSVSYMHWFQQKPGSSPKPWIYATSNLASGVPARFSGSGSGTSYSLTISRVEAEDAATYYCQQWSSSPLTFGAGTKLELKR

- Kd (rmTfR (123-763) [8]): 3.7 nM
- koff (rmTfR (123-763) [8]): 6.12e-05 s⁻¹
- kon (rmTfR (123-763) [8]): 16400 M⁻¹ s⁻¹
- EC50 [2]: 0.06 nM
- EC50 [4]: 0.06 nM
B5: AB402 (antibody, from another filing, V domains shown)
VH: EVQLVESGGGLVQPGGSLRLSCAASGFTFSNYGMHWIRQAPGKGLEWIAMIYYDSSKMNYADTVKGRFTISRDNAKNSLYLQMNSLRAEDTAVYYCAVPTSHYVVDVWGQGTTVTVSS
VL: AIQMTQSPSSLSASVGDRVTITCQASQDIGNWLAWYQQKPGKSPKLLIYGATSLADGVPSRFSGSRSGTDFTLTISSLQPEDFATYYCLQAYNTPWTFGGGTKVEIKR

- Kd (rmTfR (123-763) [8]): 3.8 nM
- koff (rmTfR (123-763) [8]): 8.39e-05 s⁻¹
- kon (rmTfR (123-763) [8]): 22000 M⁻¹ s⁻¹
- EC50 [7]: 0.09 nM
- EC50 [9]: 0.09 nM
B6: AB403 (antibody, V domains shown)
VH: B5 VH
VL: EIVMTQSPATLSVSPGERATLSCQASQDIGNWLAWYQQKPGQSPRLLIYGATSLADGVPARFSGSRSGTEFTLTISSLQSEDFAVYYCLQAYNTPWTFGGGTKVEIK
notes: also called humanized variant of AB221

- EC50 [2]: 13.6 nM
- EC50 [3]: 13.6 nM
- EC50 [4]: 13.6 nM
B7: AB405 (antibody, from another filing, V domains shown)
VH: QVQLVQSGAEVKKPGASVKVSCKASGFTFSNYGMHWIRQAPGQGLEWIAMIYYDSSKMNYADTVKGRFTITRDNSTNTLYMELSSLRSEDTAVYYCAVPTSHYVVDVWGQGTTVTVSS
VL: EIVMTQSPATLSVSPGERATLSCQASQDIGNWLAWYQQKPGQSPRLLIYGATSLADGVPARFSGSRSGTEFTLTISSLQSEDFAVYYCLQAYNTPWTFGGGTKVEIKR

- EC50 [1]: 1.68 nM
- L929 TNF Neutralization assay IC50 (TNF): 0.59 nM
B8: muTNF(8C11)-GS-muTfR(AB221) (bispecific antibody)
VH: EFQLQQSGPELVKPGASVRISCKASGYSFTDYNMNWVKQSNGKSLEWVGVINPNYGSSTYNQKFKGKATLTVDQSSSTAYMQLNSLTSEDSAVYYCARKWGQLGRGFFDVWGTGTTVTVSSGGGGSGGGGSEVQLVESGGGLVQPGNSLTLSCVASGFTFSNYGMHWIRQAPKKGLEWIAMIYYDSSKMNYADTVKGRFTISRDNSKNTLYLEMNSLRSEDTAMYYCAVPTSHYVVDVWGQGVSVTVSS
VL: QIVLSQSPAILSASPGEKVTMTCRASSSVSYMHWFQQKPGSSPKPWIYATSNLASGVPARFSGSGSGTSYSLTISRVEAEDAATYYCQQWSSSPLTFGAGTKLELKRGGSGGGGSGDIQMTQSPASLSASLEEIVTITCQASQDIGNWLAWYQQKPGKSPQLLIYGATSLADGVPSRFSGSRSGTQFSLKISRVQVEDIGIYYCLQAYNTPWTFGGGTKLELK
notes: DVD-Ig; outer 8C11 (TNF), inner AB221 (TfR); also called 8C11-GS-AB221 DVD-Ig protein; TNF-GS-AB221; copies: 2 + 2

- EC50 [7]: 0.15 nM
- Kd (rmTfR (123-763) [10]): 1.7 nM
- koff (rmTfR (123-763) [10]): 4.8e-05 s⁻¹
- kon (rmTfR (123-763) [10]): 28000 M⁻¹ s⁻¹
B9: DVD2360 (bispecific antibody)
VH: EVQLVESGGGLVQPGGSLRLSCAASGFTFSNYGMHWIRQAPGKGLEWIAMIYYDSSKMNYADTVKGRFTISRDNAKNSLYLQMNSLRAEDTAVYYCAVPTSHYVVDVWGQGTTVTVSSASTKGPEVQLLESGGGLVQPGGSLRLSCAASGFTFSNYGMSWVRQAPGKGLEWVASIRSGGGRTYYSDNVKGRFTISRDNSKNTLYLQMNSLRAEDTAVYYCVRYDHYSGSSDYWGQGTLVTVSS
VL: EIVMTQSPATLSVSPGERATLSCQASQDIGNWLAWYQQKPGQSPRLLIYGATSLADGVPARFSGSRSGTEFTLTISSLQSEDFAVYYCLQAYNTPWTFGGGTKVEIKRTVAAPDVVMTQSPLSLPVTPGEPASISCKSSQSLLDSDGKTYLNWLLQKPGQSPQRLIYLVSKLDSGVPDRFSGSGSGTDFTLKISRVEAEDVGVYYCWQGTHFPRTFGQGTKVEIK
notes: DVD-Ig
